Laboratory results taken from patent publication US20050084868A1 (published 2005).
Positions count from the first letter of the chain named.

T1: carcinoembryonic antigen (UniProt P06731 35-685)
T1 construct: Bought reagent (Biodesign); also called CEA
T1 sequence: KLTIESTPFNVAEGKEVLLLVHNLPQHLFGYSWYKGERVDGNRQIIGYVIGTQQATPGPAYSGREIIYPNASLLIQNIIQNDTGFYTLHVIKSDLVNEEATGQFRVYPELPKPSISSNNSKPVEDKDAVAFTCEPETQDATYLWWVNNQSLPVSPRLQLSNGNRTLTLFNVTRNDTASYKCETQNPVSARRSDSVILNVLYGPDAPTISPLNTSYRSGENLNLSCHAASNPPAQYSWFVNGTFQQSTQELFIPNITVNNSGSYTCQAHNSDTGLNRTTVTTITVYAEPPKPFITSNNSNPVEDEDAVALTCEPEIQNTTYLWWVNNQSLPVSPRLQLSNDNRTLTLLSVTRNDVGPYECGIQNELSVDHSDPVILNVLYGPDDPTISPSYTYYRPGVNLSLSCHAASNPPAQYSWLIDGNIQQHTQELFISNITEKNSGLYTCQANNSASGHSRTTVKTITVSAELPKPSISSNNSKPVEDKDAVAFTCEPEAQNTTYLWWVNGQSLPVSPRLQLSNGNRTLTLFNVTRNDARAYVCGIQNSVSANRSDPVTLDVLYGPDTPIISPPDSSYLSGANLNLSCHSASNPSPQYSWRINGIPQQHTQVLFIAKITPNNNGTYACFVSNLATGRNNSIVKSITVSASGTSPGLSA

B1: NA06.4 (scFv)
chain: QVKLQQSGAELVKSGGSVKLSCTASGFNIKDSYMHWVRQGPEQGLEWIGWIDPENGDTEYAPKFQGKATFTTDTSSNTAYLQLSSLTSEDTAVYYCNEGTPTGPYYFDYWGQGTTVTVSSGGGGSGGGGSGGGGSENVLTQSPAIVSASPGEKVTITCSASSSVSYMHWFQQKPGTSPKLVIYSTSNLASGVPARFSGSGSGTSYSLTISRMEAEDAATYYCQQRSSYPLTFGAGTKLELKRAATLVSEKQLAEVVANTITPLMKAQSVPGMAVAVIYQGKPHYYTFGKADIAANKPVTPQTLFELGSISKTFTGVLGGDAIARGEISLDDAVTRYWPQLTGKQWQGIRMLDLATYTAGGLPLQVPDEVTDNASLLRFYQNWQPQWKPGTTRLYANASIGLFGALAVKPSGMPYEQAMTTRVLKPLKLDHTWINVPKAEEAHYAWGYRDGKAVRVSPGMLDAQAYGVKTNVQDMANWVMANMAPENVADASLKQGIALAQSRYWRIGSMYQGLGWEMLNWPVEANTVVETSFGNVALAPLPVAEVNPPAPPVKASWVHKTGSTGGFGSYVAFIPEKQIGIVMLANTSYPNPARVEAAYHILEALQ
notes: Variant of the CAB1 scFv-BLA fusion built on NA05.6; Tested as crude lysate after thermolysin treatment; Positions are numbered along the whole CAB1 fusion (pME27)
B2: NA06.2 (scFv)
chain: B1 chain with E42G, V146M, A194D
notes: as for B1
B3: NA06.11 (scFv)
chain: B1 chain with K3Q, V146M, A194D
notes: as for B1
B4: NA06.12 (scFv)
chain: B1 chain with E136Q, V146M
notes: as for B1
B5: NA06.10 (scFv)
chain: B1 chain with A194D
notes: as for B1
B6: NA06.6 (scFv)
chain: B1 chain with K3Q
notes: as for B1
B7: NA05.9 (scFv)
chain: B1 chain with K3Q, K13R, S14P, G16T, E42G, E136Q, A234G
notes: Variant of the CAB1 scFv-BLA fusion, tested as crude lysate; Positions are numbered along the whole CAB1 fusion (pME27)
B8: NA05.12 (scFv)
chain: B1 chain with K3Q, K13R, S14P, G16T, V181W
notes: as for B7
B9: NA05.8 (scFv)
chain: B1 chain with G16T, V37L, V146M, F170Y, V181W, A234G
notes: as for B7
B10: NA05.6 (scFv)
chain: B1 chain with V37L, V146M
notes: Variant of the CAB1 scFv-BLA fusion (plasmid pME27.1), tested as crude E. coli lysate; also called pNA05.6; parent NA05.6
B11: NA05.15 (scFv)
chain: B1 chain with K13R, G16T, V37L, F170Y, V181W, A194D
notes: as for B7

target: T1, carcinoembryonic antigen; test: CEA-coated plate assay on thermolysin-treated lysate, BLA/nitrocefin read-out

Does B1 bind?
Result: binds

Does B2 bind?
Result: binds

Does B3 bind?
Result: binds

Does B4 bind?
Result: binds

Does B5 bind?
Result: binds

Does B6 bind?
Result: binds

target: T1, carcinoembryonic antigen; test: plate assay: CEA coated on wells, culture lysate added, bound fusion read by BLA activity on nitrocefin

Does B7 bind?
Result: binds

Does B8 bind?
Result: binds

Does B9 bind?
Result: binds

Does B10 bind?
Result: binds

Does B11 bind?
Result: binds
